Data taken from patent publication US20110286970A1.

Columns and labels:
[1] = molecular target: wild type human α-synuclein (human) (UniProt P37840); assay: cell-based or functional assay
[2] = molecular target: 12 amino acid fragment corresponding to amino acids 71-82 of human α-synuclein (human); assay: cell-based or functional assay

Q: For “M13 filamentous phage (wild-type, prepared with M13K07 helper phage)”, which ELISA of α-synuclein oligomers in the insoluble fraction of SH-SY5Y cells [1] is on record?
A: 40 to 50 % reduction

Q: And the Thioflavine T (Tht) fluorescence emission at 480 nm of the pre-aggregated peptide [2]?
A: 43 % reduction
